From patent US20080267971A1 (published 2008) come the findings set out here.

Where a chain is given by its changes, count along the chain named.

B1: mAb 5.108.1 (antibody, V domains shown)
VH: QVQLVESGGGVVQPGRSLRLSCAASGFTFSSYGMHWVRQAPGKGLEWVAVIWYDGSNKYYADSVKGRFTISRDNSKNTLYLQMNSLRAEDTAMYYCARELALWGQGTLVTVSS
VL: EIVMTQSPATLSVSPGERATLSCRASQSVSSYLAWYQQKPGQAPRLLIYGAFTRATGIPARFRGSGSGPEFTLTISSLQSEDFAVYYCQQYSHWWTFGQGTKVEIKR
notes: Human hybridoma IgG (XenoMouse); also called x5.108
B2: mAb 5.39.1 (antibody, V domains shown)
VH: QVQLVQSGAEVTKPGASVKVSCKASGYTFTAYHMYWVRQAPGQGLEWMGWINPNSGGTNYAQKFQGRVTMTRDTSISTAYMELSRLRSDDSPVYYCARDQGIAAAGPFDYWGQGTLVTVSS
VL: B1 VL with E17D, Y32N, L33F, A51S, F52S, R63S, P69T, S92H, H93Y, I105F
notes: Human hybridoma IgG (XenoMouse); also called x5.39
B3: mAb 5.35.1 (antibody, V domains shown)
VH: EVQLVESGGGVVRPGGSLRLSCTTSGFTFDDYGMSWVRQAPGKGLEWVSGINWNGGSTVYADSVKGRFTISRDSAKNSLYLQMNSLRAEDTALYHCARNKQWLWYFDLWGRGTLVTVSS
VL: EIVMTQSPATLSVSPGERATLSCRASQSVSSNLAWYQQKPGQAPRLLIYGASTRATGIPARFSGSGSGTEFTLTISSLQSEDFAVYYCEQYNNWPLTFGGGTKVEIKR
notes: Human hybridoma IgG (XenoMouse); also called x5.35
B4: mAb 5.103.1 (antibody, V domains shown)
VH: QVQLVQSGAEVKKPGASVKVSCKASGYTFTGYYLYWVPQAPGQGLEWMGWISPNSGGTNYAQKFQGRVTMTRDTSISTAYMELSRLRSDDTAVYYCARDQVIAVAGPFDYWAQGTLVTVSS
VL: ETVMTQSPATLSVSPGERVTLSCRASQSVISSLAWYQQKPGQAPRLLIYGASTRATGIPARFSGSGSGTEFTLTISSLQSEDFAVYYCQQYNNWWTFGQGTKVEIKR
notes: Human hybridoma IgG (XenoMouse); also called 5.103.3; x5.103
B5: mAb 5.54.1 (antibody, V domains shown)
VH: not shown
VL: EIVMTQSPATLSVSPGERATLSCRASQSLISNLAWYQQKPGQAPRLLIFGASTRATGIPARFSGSGSGTEFTLTISSLQSEDFAIYYCHQYNNWWTFGQGTKVEIKR
notes: Human hybridoma IgG (XenoMouse); also called x5.54
B6: mAb 5.88.3 (antibody, V domains shown)
VH: EVQMVESGGGLVQPGGSLRLSCAASGFTLRSYWMSWVRQAPGKGLEWVANIKEDGSEKYHVDSVKGRFTISRDNAENSLFLQMSSLRAEDTAVYYCARDMEASAGLFDYWGQGTLVTVSS
VL: B5 VL with T20I, L29I, I30S, F49Y, I85V, H89Q, N93Y
notes: Human hybridoma IgG (XenoMouse); also called x5.88
B7: mAb 5.13.1 (antibody, V domains shown)
VH: EVQLVESGGGLVQPGGSLRLSCAASGFTFSSYWMSWVRQAPGKGLEWVANIKQDGSEKYYVDSVKGRFTISRDNAKNSLYLQMNSLRAEDTAVYYCARDPGIAVAGPFDYWGQGTLVTVSS
VL: B1 VL with Y32N, F52S, R63S, P69T, S92N
notes: Human hybridoma IgG (XenoMouse); also called x5.13
B8: mAb 5.40.2 (antibody, V domains shown)
VH: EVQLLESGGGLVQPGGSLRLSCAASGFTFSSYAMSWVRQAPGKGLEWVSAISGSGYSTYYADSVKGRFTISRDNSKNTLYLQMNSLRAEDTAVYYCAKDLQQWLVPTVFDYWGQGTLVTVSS
VL: B1 VL with Y32N, A34V, G50D, A51S, F52S, A60V, R63S, P69T, S92N
notes: Human hybridoma IgG (XenoMouse); also called x5.40
B9: mAb 5.62.1 (antibody, V domains shown)
VH: B7 VH
VL: B1 VL with Y32N, R63S, P69T, S92N, E104G
notes: Human hybridoma IgG (XenoMouse); also called x5.62

The first test addresses T1, human Ang-2 H375Q (human, UniProt O15123 19-496).
T1 sequence: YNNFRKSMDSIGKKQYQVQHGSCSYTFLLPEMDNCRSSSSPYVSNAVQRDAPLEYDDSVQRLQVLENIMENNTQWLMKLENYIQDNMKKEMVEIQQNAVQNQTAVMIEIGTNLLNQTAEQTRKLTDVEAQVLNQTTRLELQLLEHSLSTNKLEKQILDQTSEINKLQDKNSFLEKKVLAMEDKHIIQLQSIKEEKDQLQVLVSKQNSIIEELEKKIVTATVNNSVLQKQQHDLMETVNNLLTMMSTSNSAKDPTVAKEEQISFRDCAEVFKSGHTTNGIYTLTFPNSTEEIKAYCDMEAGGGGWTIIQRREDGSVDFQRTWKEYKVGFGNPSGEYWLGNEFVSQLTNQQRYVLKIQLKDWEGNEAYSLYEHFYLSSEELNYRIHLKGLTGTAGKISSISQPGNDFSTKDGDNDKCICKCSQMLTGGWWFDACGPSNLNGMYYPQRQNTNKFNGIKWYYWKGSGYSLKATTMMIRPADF
As to the kind of experiment: ELISA. On the technique in general: In an ELISA, binding on a coated surface is turned into a signal by an enzyme label.
For B1, the “% of binding to human Ang-2” value was found to be 100%.

Regarding B2, the “% of binding to human Ang-2” value is 100%.

Regarding B3, the “% of binding to human Ang-2” value came out at 100%.

Turning to B4, the “% of binding to human Ang-2” value was found to be 100%.

With B5, the “% of binding to human Ang-2” value came out at 100%.

As for B6, the “% of binding to human Ang-2” value was determined as 100%.

Turning to B7, the “% of binding to human Ang-2” value turned out to be 100%.

For the molecule B8, the “% of binding to human Ang-2” value came to 100%.

Take B9: the “% of binding to human Ang-2” value came out at 100%.

The target of another test is T2, human Angiopoietin-1 (human, UniProt Q15389 20-498, limits assumed).
T2 construct: Bought recombinant protein (R&D Systems 293-AN-025/CF) or supernatant of transfected 293F cells; also called Ang-1; recombinant Ang-1
T2 sequence: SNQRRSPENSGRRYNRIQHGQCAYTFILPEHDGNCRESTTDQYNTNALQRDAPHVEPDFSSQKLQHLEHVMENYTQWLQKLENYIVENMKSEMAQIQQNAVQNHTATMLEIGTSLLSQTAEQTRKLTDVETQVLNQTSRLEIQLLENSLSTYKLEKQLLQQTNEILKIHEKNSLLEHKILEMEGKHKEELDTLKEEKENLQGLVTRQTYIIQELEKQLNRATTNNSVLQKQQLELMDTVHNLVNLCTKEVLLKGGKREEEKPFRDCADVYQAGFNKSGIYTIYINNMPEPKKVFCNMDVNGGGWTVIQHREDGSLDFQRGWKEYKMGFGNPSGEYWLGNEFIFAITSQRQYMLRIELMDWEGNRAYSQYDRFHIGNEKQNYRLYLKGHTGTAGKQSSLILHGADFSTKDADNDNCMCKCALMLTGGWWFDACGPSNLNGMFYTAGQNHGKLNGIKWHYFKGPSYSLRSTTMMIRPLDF
Description: capture ELISA. As for the experimental part: The binding of the top 27 human monoclonal antibodies was detected with a HRP-conjugated goat anti-human antibody, followed by colorimetric horseradish peroxidase substrate (Enhanced K-Blue TMB substrate Neogen Corporation). The absorbance of each well of the ELISA plates was measured at 450 nm on a microplate autoreader.
Take B1: the binding result was “no binding”.

With B2, the binding result was “no binding”.

For the molecule B3, the binding result is “no binding”.

In the case of B4, the binding result was “no binding”.

As to B5, the binding result is listed as “no binding”.

As to B6, the binding result is “no binding”.

In the case of B7, the binding result is listed as “no binding”.

For the molecule B8, the binding result is listed as “no binding”.

With B9, the binding result is recorded as “no binding”.

Another test concerns the target T3, human Angiopoietin-2 (human, UniProt O15123 19-496).
T3 construct: Mostly bought recombinant protein (R&D Systems 623-AM/CF, 623-AN; biotinylated BT623) or supernatant of transfected 293F cells; also called Ang-2; rhAng-2
T3 sequence: T1 sequence with Q356H
Description: Biacore, mAb captured. The procedure: (§1) The label-free surface plasmon resonance (SPR), or Biacore, was utilized to measure the antibody affinity to the antigen. For this purpose, a high-density goat anti-human antibody surface over a CM5 Biacore chip was prepared using routine amine coupling. All the purified mAbs were diluted to approximately 8 μg/ml in HBS-P running buffer containing 100 μg/ml BSA and 10 mg/mL carboxymethyldextran. Each mAb was captured on a separate surface using a 42-second contact time, and a 5-minute wash for stabilization of the mAb baseline.
(§2) Data were fit globally to a 1:1 interaction model to determine the binding kinetics.
For B1, the Kd (commonly the constant that tells how readily two partners part at equilibrium) is no more than 0.031 nM and the kon (commonly the rate constant with which the complex forms) worked out at 320000 M⁻¹ s⁻¹.

Consider B2, for which the Kd was no more than 0.043 nM and the kon was 230000 M⁻¹ s⁻¹.

B3 gave a Kd of no more than 0.029 nM and a kon of 340000 M⁻¹ s⁻¹.

As to B4, the Kd is no more than 0.045 nM and the kon came to 220000 M⁻¹ s⁻¹.

For B5, the Kd is no more than 0.066 nM and the kon worked out at 150000 M⁻¹ s⁻¹.

B6 came in with a Kd of no more than 0.037 nM and a kon of 270000 M⁻¹ s⁻¹.

In the case of B7, the Kd is no more than 0.047 nM and the kon was found to be 210000 M⁻¹ s⁻¹.

As for B8, the Kd is no more than 0.129 nM and the kon was found to be 78000 M⁻¹ s⁻¹.

B9: the Kd was no more than 0.065 nM and the kon is 150000 M⁻¹ s⁻¹.

For a further test, the target named is T3, human Angiopoietin-2. Description: Biacore; kd held constant (*). The procedure: as §1, §2
In the case of B1, the koff – broadly, the first-order rate constant of dissociation – is no more than 1e-05 s⁻¹.

Molecule B2 displayed a koff of no more than 1e-05 s⁻¹.

The molecule B3 showed a koff of no more than 1e-05 s⁻¹.

With B4, the koff is no more than 1e-05 s⁻¹.

B5 gave a koff of no more than 1e-05 s⁻¹.

As to B6, the koff was no more than 1e-05 s⁻¹.

As for B7, the koff is no more than 1e-05 s⁻¹.

Regarding B8, the koff was no more than 1e-05 s⁻¹.

Take B9: the koff was no more than 1e-05 s⁻¹.

A further test deals with T4, mouse Angiopoietin-2 (mouse, UniProt O35608 19-496).
T4 construct: Used as conditioned medium of transfectants; also called mAng-2; mouse Ang-2
T4 sequence: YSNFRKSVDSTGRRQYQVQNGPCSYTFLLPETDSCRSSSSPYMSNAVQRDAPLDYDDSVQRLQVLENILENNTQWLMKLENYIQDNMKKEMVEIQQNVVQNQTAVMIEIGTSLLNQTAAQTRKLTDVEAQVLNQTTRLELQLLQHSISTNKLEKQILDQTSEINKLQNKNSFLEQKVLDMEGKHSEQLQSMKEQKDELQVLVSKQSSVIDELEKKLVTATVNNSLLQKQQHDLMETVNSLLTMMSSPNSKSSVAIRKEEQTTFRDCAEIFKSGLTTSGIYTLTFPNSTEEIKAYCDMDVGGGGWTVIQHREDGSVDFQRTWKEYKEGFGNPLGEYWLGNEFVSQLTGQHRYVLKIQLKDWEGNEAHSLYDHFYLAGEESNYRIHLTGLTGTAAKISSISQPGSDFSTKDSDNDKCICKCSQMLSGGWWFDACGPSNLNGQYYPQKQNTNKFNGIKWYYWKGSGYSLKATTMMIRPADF
As to the kind of experiment: ELISA, recombinant mouse Ang-2.
As to B1, the binding result was “no binding”.

Regarding B2, the binding result is reported as “no binding”.

For B3, the binding result was “no binding”.

As to B4, the binding result was “no binding”.

In the case of B5, the binding result is recorded as “no binding”.

B6: the binding result is “no binding”.

For the molecule B7, the binding result is on record as “no binding”.

In the case of B8, the binding result was “no binding”.

For B9, the binding result is on record as “no binding”.

A further test has as its target T3, human Angiopoietin-2. Description: inhibition of rhAng-2 binding to its receptor.
B1: the “OD650 in inhibition assay” value worked out at 0.0688 OD650.

In the case of B2, the “OD650 in inhibition assay” value was 0.0519 OD650.

Take B3: the “OD650 in inhibition assay” value worked out at 0.0663 OD650.

B4: the “OD650 in inhibition assay” value worked out at 0.101 OD650.

For the molecule B5, the “OD650 in inhibition assay” value is 0.044 OD650.

With B6, the “OD650 in inhibition assay” value came out at 0.0874 OD650.

Turning to B7, the “OD650 in inhibition assay” value is 0.0744 OD650.

Turning to B8, the “OD650 in inhibition assay” value was 0.0691 OD650.

As to B9, the “OD650 in inhibition assay” value amounted to 0.065 OD650.
